# In article PMC9904277 (2023):
# B1: BAD-wt BH3 (peptide)
# chain: NLWAAQRYGRELRRMSDEFVDSFKK
# B2: HRK-wt 28-50 (peptide)
# chain: SAAQLTAARLKALGDELHQRTMW
# Target: MCL-1 (Homo sapiens, UniProt Q07820)
# Assay: competition fluorescence anisotropy
# Chain of MCL-1 (Q07820 whole entry): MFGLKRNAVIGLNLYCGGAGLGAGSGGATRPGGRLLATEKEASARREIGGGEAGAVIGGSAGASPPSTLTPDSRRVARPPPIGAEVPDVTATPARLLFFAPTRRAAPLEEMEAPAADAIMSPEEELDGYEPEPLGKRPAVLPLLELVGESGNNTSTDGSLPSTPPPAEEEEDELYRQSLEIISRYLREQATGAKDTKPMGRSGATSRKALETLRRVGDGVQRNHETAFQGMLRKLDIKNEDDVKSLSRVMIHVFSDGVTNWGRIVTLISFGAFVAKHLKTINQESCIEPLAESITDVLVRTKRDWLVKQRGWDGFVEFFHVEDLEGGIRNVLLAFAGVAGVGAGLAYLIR
row,Binder,IC50
1,B1,> 50000 nM
2,B2,2700 nM
